The values below come from patent US20120322073A1 (CELGENE, published 2012).

In the assay the target is T1, human CRBN protein (cereblon), full-length 51 kDa (human, UniProt Q96SW2 1-442).
T1 construct: also called human CRBN isoform 1 (NP-057386)
Kind of assay: denaturing immunoblot. As for the experimental part:
CGN-6-4-5 was diluted 1:10,000 dilution in 0.1% Tween PBS buffer. […] Peptide neutralization was performed by combining antibody with a five-fold (by weight) excess of blocking peptide in 500 μl PBS and incubating with constant rotation at room temperature for 2 hours.
On the technique in general: In western blotting, separated proteins are transferred to a membrane and probed.

T1 sequence (Q96SW2 whole entry, canonical isoform): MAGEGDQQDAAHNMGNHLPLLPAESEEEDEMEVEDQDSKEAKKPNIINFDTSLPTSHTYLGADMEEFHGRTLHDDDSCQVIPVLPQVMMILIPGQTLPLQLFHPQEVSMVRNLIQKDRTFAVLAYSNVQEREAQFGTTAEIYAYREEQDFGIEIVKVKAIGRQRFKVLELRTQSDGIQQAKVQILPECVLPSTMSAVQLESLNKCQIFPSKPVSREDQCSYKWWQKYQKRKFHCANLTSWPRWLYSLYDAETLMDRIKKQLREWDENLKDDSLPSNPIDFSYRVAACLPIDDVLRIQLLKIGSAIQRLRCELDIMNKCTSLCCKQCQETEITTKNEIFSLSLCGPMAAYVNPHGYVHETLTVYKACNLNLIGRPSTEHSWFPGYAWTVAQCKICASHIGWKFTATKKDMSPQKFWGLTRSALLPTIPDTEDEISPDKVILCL

B1: Rabbit monoclonal antibody CGN-6-4-5 (antibody, V domains shown)
VH: QSVEESGGRLVTPGTPLTLTCTVSGFSLSRYGVSWVRQAPGKGLEHIGYIYSDPGMTFYATWAKGRFTISKTSSTTVDLKMTSPTIEDTATYFCARGTPLASYSTWGPGTLVTISL
VL: AQVLTQTPASVSAAVGGTVTINCQSSENIYKNNYLSWFQQKPGQPPKLLIYQASTLASGVPSRFKGSGSGTRFSLTISDLECDDAATYYCAGGYSGNIFTFGGGTEVVVKG
notes: Rabbit IgG from a CGN-6 hybridoma clone of rabbits primed with residues 65-76 of human CRBN; also called monoclonal anti-CRBN antibody
Take B1: the binding result was “binds”.
